{"source": "patent US10921309", "about": "(dated 2021)", "binders": {"B1": {"name": "Barstar (Bs) (protein)", "chain": "MKKAVINGEQIRSISDLHQTLKKELALPEYYGENLDALWDALTGWVEYPLVLEWRQFEQSKQLTENGAESVLQVFREAKAEGADITIILS"}}, "key": {"[1]": {"target": "T1, OBn(GGS)2t-FhuA (barnase nanopore sensor) (Bacillus amyloliquefaciens / E. coli)", "T1 chain": "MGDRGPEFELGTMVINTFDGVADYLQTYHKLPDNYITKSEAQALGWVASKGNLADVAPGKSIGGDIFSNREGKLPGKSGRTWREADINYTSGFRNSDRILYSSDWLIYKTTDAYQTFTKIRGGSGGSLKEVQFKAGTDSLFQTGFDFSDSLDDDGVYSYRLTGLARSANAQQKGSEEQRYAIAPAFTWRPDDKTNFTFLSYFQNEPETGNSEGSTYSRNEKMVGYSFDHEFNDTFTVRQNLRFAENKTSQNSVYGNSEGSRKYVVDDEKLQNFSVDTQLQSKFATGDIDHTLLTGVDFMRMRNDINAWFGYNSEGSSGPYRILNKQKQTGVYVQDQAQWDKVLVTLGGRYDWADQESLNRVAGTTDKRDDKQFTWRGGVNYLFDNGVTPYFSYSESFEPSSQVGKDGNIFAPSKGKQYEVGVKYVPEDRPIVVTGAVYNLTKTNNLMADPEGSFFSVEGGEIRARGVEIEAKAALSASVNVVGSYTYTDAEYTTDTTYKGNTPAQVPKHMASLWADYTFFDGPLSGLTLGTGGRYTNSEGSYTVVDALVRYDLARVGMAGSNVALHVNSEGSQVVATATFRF", "assay": "other, single-molecule nanopore, high Bs concentration"}, "[2]": {"target": "T1, OBn(GGS)2t-FhuA (barnase nanopore …)", "assay": "other, single-molecule nanopore, 300 mM KCl, pH 8"}, "[3]": {"target": "T1, OBn(GGS)2t-FhuA (barnase nanopore …)", "assay": "other, single-molecule nanopore"}}, "data": [{"binder": "B1", "values": [{"measurement": "Kd", "setting": "[1]", "value": 82, "unit": "nM"}, {"measurement": "Kd", "setting": "[2]", "value": 64, "unit": "nM"}, {"measurement": "Kd", "setting": "[3]", "value": 61, "unit": "nM"}]}]}
